In the DeepSol protein solubility set:

experiment: soluble on expression in E. coli; label from the status in PepcDB or PDB records

Sequence | soluble on expression in E. coli
MAGDSTDKAFQNFAYLLFLRNILTKSNFSETKNKPEAYNQFLFQKLKKILNLFQILQFILENIHCKPGDRIAILFAYSNDLDRNVVKNVWNTADFGFYSHFLVFANVRFDVRQEEEILFHYSYLNATSSVFSKLPDSSLGFGNNATGSDSLKTIDVGKFYSNNQVPVCGSIVLILSKRYPNELKILEVSRKVQEHHGIVHVISSVFPSGGTQSKALYKLTSRTNGICAFQEDSQFSEVSDFINISSKYYDGWHLLSHIVGSLPISGTPYPIYSVNPRVSGLGSLVLPSLSVPFSGRFYFVVTVQDHGPIDTFRSINLSWYNAKSRSSNHFLISNGQKYEINREEWFDLDPVIYNMTLNYSYLTFQDIQIRVYSSRPPEDWLPCCDSTN | not soluble
MGNKIHPIGFRLGITRDWESRWYAGKKQYRHLLLEDQRIRGLLEKELYSAGLARVDIERAADNVAVTVHVAKPGVVIGRGGERIRVLREELAKLTGKNVALNVQEVQNPNLSAPLVAQRVAEQIERRFAVRRAIKQAVQRVMESGAKGAKVIVSGRIGGAEQARTEWAAQGRVPLHTLRANIDYGFALARTTYGVLGVKAYIFLGEVIGGQKPKARPELPKAEERPRRRRPAVRVKKEE | soluble
MGSDKIHHHHHHMQNTSYIALSRQAALWRQMEVVANNMANANTPAFKGEEMMFREFLVPTRSSERAIGGKLAFVQDVGVLRDTREGPLTKTDNPLDFALHGDGYFQIETEAGMRYARNGHFRLDQTGMLVNSQGYAVMDDRDQPIVFAPNETRVEVASDGTVSTENGRVARMKVVKFENDQLLRKAGDSLFETTQDPEAVQSPNVAQGMMEESNVQPVLEMTRMTQILREYQGVQKMLDAEHERQLKAIQTLGSSKTN | not soluble
KIGYGKANPTTRLWVGGLGPNTSLAALAREFDRFGSIRTIDHVKGDSFAYIQYESLDAAQAACAKMRGFPLGGPDRRLRVDFAK | soluble
MTKVTEHLEKQLAENRVKQEEARRAREEEKQRSDNAFNNAERAFERKLEEQRKENQENQKELELEMDNSRLKHEMLYREKQKEHEDVMGAMRNASSAERSAAANMHEKELNLLRKTHESEMKNCEVQMEAIRQKGEREVRDVEDQMAKLHLERGAELDKHHKKMLKMVEKSHEDCTREKVKQHALKMLEMKNEGQRKAIEHKIVMEKLEQARGMSQRLAVNEANREVYRLFMAIMEPVNEARSNLGDIKALCDNNGEDYEDSDTACAEYYSSGIGNSRSIFDIRTNAFRDFVLNQPNCDHELVIACQTAINSMKKPMESTTIRSACTTLPRFMGEQRHLRITAILQNIDDLTSTLEAISDDVRLNFVSWKQLEIVEAVVEQKTIEKE | soluble
MNIDSDIFKIQSNNVLPSRGKILISEPFLRDATFGRSVVLLIDHTEEGSMGLIINKQLPIFVNDIIKEFKYIENIPLYKGGPIATDTLFYLHTLADIPGAIPISKGLYLNGDFDEIKKYILQGNKVDRYIRFFLGYSGWESEQLSTELKENTWLVSKEENAYLMNGDTKDMWKQALEKLGSKYETWSRFPQVPTFN | not soluble
MRLCGLLIFLSYIVYVDNAVTANFISDPRSMFPKMVRTKNAFHFLQYFMGTFRRMFRNKTEMIEHFNYYDDQVKGTDCHIQEELDFARFKSYFDRYTRTHYNPEIRIIFAIMTKDSSHMTVEFHVTSQSWFGFEDHFHMIIRAVNDENVGWGVRYLSMAFNC | not soluble
GKLHEPYEIIVIDVPSEYQGNVTQLLATRKGLMQSMSTTPGSDWIRMEFRIPARGLIGFRTQFMTETRGTGIANSYSDGMDVWAGEIKGRAHGSLVADRSGQITAYALTQLADRGSFFVEPGTETYEGVV | not soluble
MGSDKIHHHHHHMAAIPTYKLYGEKTEVSGEFLLHCETLFSRSSLYRFEIDLHRHENFLQILYISEGQGDATLDGKVIAITPPAAIVVPPLFSHGFRFSRSIKGMIITVLPAALPLAVRTSLKQALPLPLHMPLEGEPCAIEISLLMERIADEYAGAKPGRNGLLEAYLATVVLLLARQAAPDASQDLMTLTANDRRMEKLAALIAANFRSHKTAAFYAREMGLSPTHLNRLAKAGTGATLQQLIARKQLEIAQQELIFSQTSIQAIALNHGFTDPAYFTRFFTRETGLTPRAWRLAERQKLQNLSDRAQAEISAATASE | not soluble
MAHHHHHHSGTVTDDYLANNVDYASGFKGPLPMPPSKHIAIVACMDARLDVYRMLGIKEGEAHVIRNAGCVVTDDVIRSLAISQRLLGTREIILLHHTDCGMLTFTDDDFKRAIQDETGIRPTWSPESYPDAVEDVRQSLRRIEVNPFVTKHTSLRGFVFDVATGKLNEVTP | soluble
MATLYDVPPEELIEALTETLADEDDIEAPDWAEFTKTGVDRELPPEQEDFWTRRAASLLRKVAVDGPVGVNALRSEYGTSKQGTTRYRVRPHQKTKGSGNIIRTALQQLEDAGYVETSENDGRRVTGDGRSLLDDTAGDLLTELDRPELERYALEHHHHHH | soluble
MIRTDNLSDLASARDYWRTDKYISFVITFQFYLLLDTMSDSFNWPAGNNEARERLGEKFESLHLDSRISTSHAKPLSNADPVVVPIYHSSTYRFKTVDQFNEDNHGANFVYRRCGNPTTENVEVVINEIEGGAGSLLYNSGLAAISAVFLEFLSSGAHMIVMNPIYSGTSSFINETLARFGVEITSVDVEKEKDFAGAVEKAIRPNTKMIYFESIANPTMAVPDILGTIEVAKKYKILTCLDATFSSPYNIQPLKLGADISLHSCSKYIGGHTDVIAGVVTVSSYDNWKKLKLQQLTTGSSLSPYDAALLTRGLKTLGLRVDRISENAQKTAEFLESHPKVERVFYPGLPSHPQHQYAKQVMKQFAGMIAFDVGTAENAIKLVESLKLIIHAVSLGGTESLIEHPLSMSHGKHLLRYLDGPTVAPGLLRFSVGIENVEDIIGDLNDALEKL | not soluble
MDGYQLTFSNNKRSDKSIVSEKLQRDCDPPITQKYFWSSGGHTFHFRAAAAEKNVTPFSTKMQGKYIKKKAM | not soluble
MLKRRQPKYCSFMDSIDNSTTIIRKNLNRFIRELTDDGKLDFESIPYQNLQKEVANQDEEGCENVIEVLLDTTSRSGCPDRKLILQLFNSFFLQFPIFRENLLNDPSEFLELMFETNPIRNPLPGSKKHGNELKVEAITVIKSWEKEKCVKNDARMKCLVVTLKKTKFVDYENGAKKIEAERKRKKILEERKMKMIENSVNVYSSKYHEIKNDAETLSMELTTTMQMLVPSFTTADPEVPSTSTSTPSAISDSKSFEIFIPDLTPEISVSSENDAIVEAFLGAKLSLIHRVQTLRKLVKRLQLLKQPGEKLAQEIIDYRDGIKNLVLKADELRIINPRPPKNKRKKSDDDFIDVDISIDDILMVQYAEKLEVDVKSKDESEKITESPEKHKIEMKNEKPVKIKTVPFGLDLKYWGEERKDVEVPKNNADCHRFWRSADEGTVAGKAQQSIYTQRQYTFIGKAPDNRKVCLAKMKSGKLCPRKDYYTCPLHGKIVDRDDEGRPINEEDRLEENYRKEQNHLKEADKIRQMIEKEYESKTKRRKKHDVDTTASEDVRNRLQKKLLDPKTIQRVSADLDASRKNRLEKNFGQQFSHF | not soluble
SLGKKIETHLEDMVAQANAQLKLTAPESNLEVSYQNYHRGVFSSQLQLLVKPIAGKENPWIKSGQSVIFNESVDHGPFPLAQLKKLNLIPSMASIQTTLVNNEVSKPLFDMAKGETPFEINSRIGYSGDSSSDISLKPLNYEQKDEKVAFSGGEFQLNADRDGKAISLSGEAQSGRIDAVNEYNQKVQLTFNNLKTDGSSTLASFGERVGNQKLSLEKMTISVEGKELALLEGMEISGKSDLVNDGKTINSQLDYSLNSLKVQNQDLGSGKLTLKVGQIDGEAWHQFSQQYNAQTQALLAQPEIANNPELYQEKVTEAFFSALPLMLKGDPVITIAPLSWKNSQGESALNLSLFLKDPATTKEAPQTLAQEVDRSVKSLDAKLTIPVDMATEFMTQVAKLEGYQEDQAKKLAKQQVEGASAMGQMFRLTTLQDNTITTSLQYANGQITLNGQKMSLEDFVGMFAMPALNVPAVPAIPQQ | soluble
MNNNNKAKTLITQLEQEINWVEELNTLLSEEKEILSTSQFNQLETLAEKKQELSTKLEASAKQRVDLIKESNPGDKPHGLLLSDFLKNCATEDGIQINHLNNTLAERLNLCRELNTINGQVIANNMYTRQQIVNALSGNKSDAVSVYTSNGNLETPSESSHHEEA | soluble
SLHIQRKSTMSKCSADETPVCCCMDVGTIMDNSDCTASYSRVFANRAEAEQTLAALTEKARSVESEPCKITPTFTEESDGVRLDIDFTFACEAEMLIFQLGLR | soluble
MGTFTATYFLKNAFWDKRGLWTATLAVAYFARCWESAGYNKAEMMKGHSKMYADRLKQLPAHTDAWKY | not soluble
MPILGHNILKIEFEKLQTLGGKIEVSLRPTIRNLRLGEMHLPSGKVKGIEVDVDYIITYSPEVARASIKVRVFYVPRNKEDIDNILDEWEDRKVLPGELVAEVVNFTTSELMPIAMYIAKEMRIPYPVPLPRAVVRGE | soluble
MQFLQNIPPYLFFTGKGGVGKTSISCATAIRLAEQGKRVLLVSTDPASNVGQVFSQTIGNTIQAIASVPGLSALEIDPQAAAQQYRARIVDPIKGVLPDDVVSSINEQLSGACTTEIAAFDEFTGLLTDASLLTRFDHIIFDTAPTGHTIRLLQLPGAWSSFIDSNPEGASCLGPMAGLEKQREQYAYAVEALSDPKRTRLVLVARLQKSTLQEVARTHLELAAIGLKNQYLVINGVLPKTEAANDTLAAAIWEREQEALANLPADLAGLPTDTLFLQPVNMVGVSALSRLLSTQPVASPSSDEYLQQRPDIPSLSALVDDIARNEHGLIMLMGKGGVGKTTMAAAIAVRLADMGFDVHLTTSDPAAHLSMTLNGSLNNLQVSRIDPHEETERYRQHVLETKGKELDEAGKRLLEEDLRSPCTEEIAVFQAFSRVIREAGKRFVVMDTAPTGHTLLLLDATGAYHREIAKKMGEKGHFTTPMMLLQDPERTKVLLVTLPETTPVLEAANLQADLERAGIHPWGWIINNSLSIADTRSPLLRMRAQQELPQIESVKRQHASRVALVPVLASEPTGIDKLKQLAGHHHHHH | soluble
MGSDKIHHHHHHMSSGTENDQFYSFDESDSSSIELYESHNTSEFTIHGLVFPKLISVTSQDSEFDINEDEDGVDTIYEGMLDAPLTKNNKRILCEGSVPNLSYECLTTKGIFERMLQRVDHLQPIFAIPSADILILLQHYDWNEERLLEVWTEKMDELLVELGLSTTANIKKDNDYNSHFREVEFKNDFTCIICCDKKDTETFALECGHEYCINCYRHYIKDKLHEGNIITCMDCSLALKNEDIDKVMGHPSSSKLMDSSIKSFVQKHNRNYKWCPFADCKSIVHLRDTSSLPEYTRLHYSPFVKCNSFHRFCFNCGFEVHSPADCKITTAWVKKARKESEILNWVLSHTKECPKCSVNIEKNGGCNHMVCSSCKYEFCWICEGPWAPHGKNFFQCTMYKNNEDNKSKNPQDANKTLKKYTFYYRLFNEHEVSAKLDWNLGQTLGTKVHALQERIGISWIDGQFLSESLKVLNEGRTVLKWSFAVAYYSDASHNLTKIFVDNQMLLANAVESLSELLQIKTPEVIMKRRPEFYNKAGYVENRTTALMECGRELLCKGICKAAE | not soluble
MGSDKIHHHHHHMAKERVDVLLVEQGLFDTREKAKRAVMAGEILGDNEERLDKPGVKIDPSVKLHLKGKPMPYVSRGGLKLEKALKVFGLDVKGLTVLDIGSSTGGFTDVMLQNGAKLSYALDVGTNQLVWKLREDPRVVVMENTNFRYSKLEDFTEGQPEFASIDVSFISLKLILPALKNIIKTHGSVVSLIKPQFEAGRENVGKHGIVRDRKVHEEVLKNVLAMANAEGFNVKGLDFSPIKGGEGNIEFLAWLERSDTDQGVIEENVDTQKVIDSAYSNLNS | not soluble
